Data reported in article PMC11642994, “AGC family kinase of Entamoeba histolytica: Decoding the members biochemically” (PLOS Pathogens, 2024).

T1: EhAGCK1 WT (Entamoeba histolytica AGC family kinase 1, EHI_188930), full-length recombinant His-tagged protein (Entamoeba histolytica, UniProt C4M2W0 1-433)
T1 construct: also called His-EhAGCK1; source: E. coli C41(DE3), purified (Ni2+-NTA)
T1 sequence: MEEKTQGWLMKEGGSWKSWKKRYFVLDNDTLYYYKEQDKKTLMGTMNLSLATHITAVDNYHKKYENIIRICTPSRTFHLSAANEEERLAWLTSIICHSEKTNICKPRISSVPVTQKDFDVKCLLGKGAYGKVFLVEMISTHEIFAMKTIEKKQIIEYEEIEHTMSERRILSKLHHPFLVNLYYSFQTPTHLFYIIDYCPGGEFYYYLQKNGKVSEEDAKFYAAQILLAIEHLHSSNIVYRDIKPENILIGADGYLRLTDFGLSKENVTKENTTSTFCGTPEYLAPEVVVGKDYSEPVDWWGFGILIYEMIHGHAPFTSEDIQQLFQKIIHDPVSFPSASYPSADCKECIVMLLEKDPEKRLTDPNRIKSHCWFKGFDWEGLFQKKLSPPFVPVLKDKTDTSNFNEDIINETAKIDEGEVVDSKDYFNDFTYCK

T2: KDD1, kinase-dead EhAGCK1 (K147A and D241A) (Entamoeba histolytica, UniProt C4M2W0 1-433, K147A | D241A)
T2 construct: source: E. coli C41(DE3), purified (Ni2+-NTA)
T2 sequence: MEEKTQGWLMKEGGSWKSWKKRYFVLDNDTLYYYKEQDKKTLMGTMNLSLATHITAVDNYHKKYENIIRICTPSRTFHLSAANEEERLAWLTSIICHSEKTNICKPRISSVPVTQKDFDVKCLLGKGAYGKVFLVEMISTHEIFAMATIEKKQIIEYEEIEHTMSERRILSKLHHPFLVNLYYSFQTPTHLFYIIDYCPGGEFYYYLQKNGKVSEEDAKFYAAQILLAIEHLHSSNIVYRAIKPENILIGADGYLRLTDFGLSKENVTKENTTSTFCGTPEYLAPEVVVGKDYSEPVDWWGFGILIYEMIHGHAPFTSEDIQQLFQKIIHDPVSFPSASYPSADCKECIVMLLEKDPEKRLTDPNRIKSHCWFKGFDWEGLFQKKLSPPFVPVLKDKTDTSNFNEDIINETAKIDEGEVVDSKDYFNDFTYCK

T3: EhAGCK2 WT (Entamoeba histolytica AGC family kinase 2, EHI_053040), full-length recombinant His-tagged protein (Entamoeba histolytica, UniProt C4M3C2 1-434)
T3 construct: source: E. coli C41(DE3), purified (Ni2+-NTA)
T3 sequence: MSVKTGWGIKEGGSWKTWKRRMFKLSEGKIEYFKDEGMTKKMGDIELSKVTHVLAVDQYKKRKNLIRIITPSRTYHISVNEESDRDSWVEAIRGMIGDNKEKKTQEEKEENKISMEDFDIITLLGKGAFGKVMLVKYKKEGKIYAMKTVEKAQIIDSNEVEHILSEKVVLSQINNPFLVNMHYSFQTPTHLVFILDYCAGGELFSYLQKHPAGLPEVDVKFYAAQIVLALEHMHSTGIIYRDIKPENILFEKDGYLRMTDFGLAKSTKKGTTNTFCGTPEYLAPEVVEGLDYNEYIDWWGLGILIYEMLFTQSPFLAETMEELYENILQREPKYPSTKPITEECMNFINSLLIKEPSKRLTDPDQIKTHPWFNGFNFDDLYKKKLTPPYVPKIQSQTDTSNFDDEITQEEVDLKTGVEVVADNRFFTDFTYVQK

T4: KDD2, kinase-dead EhAGCK2 (K147A and D242A) (Entamoeba histolytica, UniProt C4M3C2 1-434, K147A | D242A)
T4 construct: source: E. coli C41(DE3), purified (Ni2+-NTA)
T4 sequence: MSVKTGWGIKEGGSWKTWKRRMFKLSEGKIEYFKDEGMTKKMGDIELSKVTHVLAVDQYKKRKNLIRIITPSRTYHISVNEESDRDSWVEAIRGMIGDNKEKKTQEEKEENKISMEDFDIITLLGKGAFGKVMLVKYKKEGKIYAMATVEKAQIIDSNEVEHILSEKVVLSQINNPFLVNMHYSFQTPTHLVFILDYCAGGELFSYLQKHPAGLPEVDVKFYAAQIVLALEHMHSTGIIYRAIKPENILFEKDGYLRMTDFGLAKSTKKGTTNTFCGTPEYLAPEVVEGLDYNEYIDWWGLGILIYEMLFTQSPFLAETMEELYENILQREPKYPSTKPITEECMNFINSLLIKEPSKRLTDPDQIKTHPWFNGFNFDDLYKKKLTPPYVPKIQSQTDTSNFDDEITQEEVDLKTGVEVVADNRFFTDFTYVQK


Key:
[1] = target: T1, EhAGCK1 WT (Entamoeba histolytica AGC …); assay: MST; His-tagged kinase labelled with RED-tris-NTA 2nd Generation dye, kept constant (50 nM by the legend); unlabelled peptide in 16 1:1 dilutions, 500 uM to 153 nM as printed; 50 mM Tris-Cl pH 8, 150 mM NaCl, 1 mM beta-ME, 5% glycerol; 25 C; Monolith NT.115, 50% LED, medium MST power; details: both partners purified
[2] = target: T2, KDD1, kinase-dead EhAGCK1 (K147A and …); assay: as above; details: both partners purified
[3] = target: T3, EhAGCK2 WT (Entamoeba histolytica AGC …); assay: as above; details: both partners purified
[4] = target: T4, KDD2, kinase-dead EhAGCK2 (K147A and …); assay: as above; details: both partners purified
[5] = substrate: Nc1ncnc2c1ncn2[C@@H]1O[C@H](COP(=O)(O)OP(=O)(O)OP(=O)(O)O)[C@@H](O)[C@H]1O; assay: ADP-Glo luminescent kinase assay with 0-1000 uM ATP, 50 uM HsGSK3 peptide (GRPRTTSFAESCK) as co-substrate and 20 uM kinase, pH 7.5, 30 °C, Michaelis-Menten fit.; assay type: biochemical
Experimental: (§1) Fig 6 Graphs representing the Michaelis-Menten kinetics of EhAGCK1 and EhAGCK2. Panel A-D represents the Km and Vmax for peptide substrates, assays were performed in the presence of 20 μM EhAGCK1 (WT and KDD1) and EhAGCK2 (WT and KDD2) proteins were assayed in the presence of 250 μM ATP and serial dilutions (0 μM to 200 μM) of EhRhoGEF, EhCoactosin, and HsGSK3 peptide substrates. […] Panel E-H represents the Km and Vmax for ATP, assays were assessed in the presence of 50 μM peptide substrates (EhRhoGEF, EhCoactosin, and HsGSK3), serial dilution(0 μM to 1000 μM) of ATP, and 20 μM of the proteins EhAGCK1 (WT, and KDD1) and EhAGCK2 (WT, and KDD2). […] Relative luminescence unit (RLU) values are converted to μM/min using the method described in the Materials and Methods section. […]
(§2) Further, we determined the Km and Vmax values for ATP as it serves a vital metabolic molecule and substrate crucial for kinase activity, determining ATP Km and Vmax a key biochemical parameters for all kinases. […] Additionally, we compared previously determined Km and Vmax values of human Akt proteins in the presence of GSK3 peptide with our kinase protein results, which are presented in Table 1.
(§3) The phosphorylation activity of kinases was measured using the ADP-Glo kinase assay kit according to the manufacturer’s protocol with few modifications (Promega, Madison, WI, Catalogue number V6930). […]

[6] = substrate: Nc1ncnc2c1ncn2[C@@H]1O[C@H](COP(=O)(O)OP(=O)(O)OP(=O)(O)O)[C@@H](O)[C@H]1O; assay: ADP-Glo luminescent kinase assay with 0-1000 uM ATP, 50 uM EhRhoGEF peptide as co-substrate and 20 uM kinase, pH 7.5, 30 °C, Michaelis-Menten fit.; assay type: biochemical
Experimental: as §1, §2, §3

[7] = substrate: Nc1ncnc2c1ncn2[C@@H]1O[C@H](COP(=O)(O)OP(=O)(O)OP(=O)(O)O)[C@@H](O)[C@H]1O; assay: ADP-Glo luminescent kinase assay with 0-1000 uM ATP, 50 uM EhCoactosin peptide as co-substrate and 20 uM kinase, pH 7.5, 30 °C, Michaelis-Menten fit.; assay type: biochemical
Experimental: as §1, §2, §3

Row | Binder | Kd [1] [µM] | Kd [2] [µM] | Kd [3] [µM] | Kd [4] [µM] | Km [5] [μM uM] | Km [6] [µM] | Km [7] [µM]
1 | GRPRTTSFAESCK (also called human GSK3 peptide substrate; source: synthetic peptide) [human GSK3 (HsGSK3) peptide] | 2.62 | 1080 | 0.0848 | 2.38 |  |  | 
2 | EhAGCK1 WT (Entamoeba histolytica HM-1:IMSS) (protein, full-length, His-tagged (pCold), expressed in E. coli C41(DE3)) MEEKTQGWLMKEGGSWKSWKKRYFVLDNDTLYYYKEQDKKTLMGTMNLSLATHITAVDNYHKKYENIIRICTPSRTFHLSAANEEERLAWLTSIICHSEKTNICKPRISSVPVTQKDFDVKCLLGKGAYGKVFLVEMISTHEIFAMKTIEKKQIIEYEEIEHTMSERRILSKLHHPFLVNLYYSFQTPTHLFYIIDYCPGGEFYYYLQKNGKVSEEDAKFYAAQILLAIEHLHSSNIVYRDIKPENILIGADGYLRLTDFGLSKENVTKENTTSTFCGTPEYLAPEVVVGKDYSEPVDWWGFGILIYEMIHGHAPFTSEDIQQLFQKIIHDPVSFPSASYPSADCKECIVMLLEKDPEKRLTDPNRIKSHCWFKGFDWEGLFQKKLSPPFVPVLKDKTDTSNFNEDIINETAKIDEGEVVDSKDYFNDFTYCK |  |  |  |  | 241.7 ±22.2 | 125.4 | 
3 | EhAGCK2 WT (Entamoeba histolytica HM-1:IMSS) (protein, full-length, His-tagged (pCold), expressed in E. coli C41(DE3)) MSVKTGWGIKEGGSWKTWKRRMFKLSEGKIEYFKDEGMTKKMGDIELSKVTHVLAVDQYKKRKNLIRIITPSRTYHISVNEESDRDSWVEAIRGMIGDNKEKKTQEEKEENKISMEDFDIITLLGKGAFGKVMLVKYKKEGKIYAMKTVEKAQIIDSNEVEHILSEKVVLSQINNPFLVNMHYSFQTPTHLVFILDYCAGGELFSYLQKHPAGLPEVDVKFYAAQIVLALEHMHSTGIIYRDIKPENILFEKDGYLRMTDFGLAKSTKKGTTNTFCGTPEYLAPEVVEGLDYNEYIDWWGLGILIYEMLFTQSPFLAETMEELYENILQREPKYPSTKPITEECMNFINSLLIKEPSKRLTDPDQIKTHPWFNGFNFDDLYKKKLTPPYVPKIQSQTDTSNFDDEITQEEVDLKTGVEVVADNRFFTDFTYVQK |  |  |  |  | 291± 74.4 |  | 92.06
